Reference: PMC6343799

Tests used:
SHR-1210-IgG1 (human) = test: SPR
[1] = target: cyno PD1 expressed on CHO-K1 stable cell line (Macaca fascicularis) (UniProt B0LAJ3); test: flow cytometry on cells
[2] = target: human PD1 expressed on CHO-K1 stable cell line (Homo sapiens) (UniProt Q15116); test: flow cytometry on cells

| Kd (SHR-1210-IgG1 (human)) | EC50 [1] | EC50 [2] | Substance |
| --- | --- | --- | --- |
| 32 nM | – | – | His-tagged monomeric cynomolgus monkey PD1 ectodomain (domain or fragment) |
| 4 nM | – | – | His-tagged monomeric human PD1 ectodomain (from UniProt Q15116 25-170) (domain or fragment) |
| – | 6.53 nM | 2.32 nM | SHR-1210-IgG1 (antibody) |
